In patent publication US4844895A, “Composition containing a peptide fragment of platelet factor four and method for restoring suppressed immune responses” (New York University, priority 1987, dated 1989):

B1: PF4: human platelet factor 4 purified from platelet releasate on heparin-agarose (protein, UniProt P02776 32-101, looked up)
Platelet factor 4: EAEEDGDLQCLCVKTTSQVRPRHITSLEVIKAGPHCPTAQLIATLKNGRKICLDLQAPLYKKIIKKLLES
B2: LA-PF4: low-affinity platelet factor 4, platelet alpha-granule constituent (protein, UniProt P02775 44-128, looked up)
Connective tissue-activating …: NLAKGKEESLDSDLYAELRCMCIKTTSGIHPKNIQSLEVIGKGTHCNQVEVIATLKDGRKICLDPDAPRIKKIVQKKLAGDESAD
modifications: Connective tissue-activating peptide III

Columns and labels:
[1] = test system: Con A-induced suppression; experiment: Reversal of Con A-induced suppression of the splenic plaque-forming cell (PFC) response to SRBC in mice; assay type: in vivo; conditions: for Geom. Mean of PFC/Spleen On Day 5, Expt. 2 / Immunomodulatory activity against suppression induced by 5 μg Con A (result in words): LA-PF4 0.6 μg; for Immunomodulatory activity against suppression induced by 5 μg Con A (result in words): concentrations well below those in serum: PDGF 0.003 μg, purified PF4 0.2 to 0.6 μg per mouse; for Reversal of Con A-induced suppression (result in words): mice, PFC response to SRBC
Experimental: Concanavalin A (Miles--Yeda Ltd., Research Products, Israel) was reconstituted with saline and kept frozen. Dilutions from the frozen stock were stored at 4° C. and injected i.v. into mice one day prior to antigen, sheep erythrocytes (SRBC). SRBC were obtained from Colorado Serum Company (Denver, Colorado) washed, counted and injected intraperitoneally (i.p.) in mice. Human serum or platelet releasate was administered i.v. one to two hours before Con A i.v.
The spleens of the mice were assayed for plaque-forming cells (PFC) on day 5 after injection of sheep red blood cells. The assay employed was as follows: single-cell suspensions were prepared from individual spleens of mice. The cells were suspended in Hanks' Balanced Salt Solution (Gibco Laboratories, Grand Island, New York) and washed. Direct PFC were enumerated using the well-known method of Jerne, N.K. et al (in Cell-Bound Antibody, Amos, E. and Koprowsky, H. eds., Wistar Institute Press. pp. 109-111, […]) with the slide modification of Mishell, R.I. and Dutton, R.W. (J. Exp. Med. 126:423, 1967), both incorporated by reference. […]
When treated with thrombin or A23187 (Calcium ionophore), platelets also release alpha granule constituents other than PF4. In particular, they release LA-PF4 and PDGF. The inventors tested the ability of LA-PF4 and PDGF to overcome suppression induced by 5 μg Con A. […]
Mice were injected with 10 micrograms of Con A i.v. on day -1 (except in the positive control, which received no Con A) and on day 0 with 2.5×10^6 SRBC per mouse as in Example 2 above. On day -1, the mice also received either: Nothing (100% control), Con A only, platelet releasate (equivalent to the amount of PF4 holoprotein contained in the platelet releasate from 2×10^7 platelets or about 0.12 microgram/mouse) and various concentrations of the above-mentioned synthetic C-terminal peptide of human PF4.

[2] = test system: PFC response to SRBC; experiment: PFC response to SRBC in mice not injected with Con A (adjuvant effect); parameters: species or system CB6F1 mouse; conditions: mouse, in vivo
Experimental: The spleens of the mice were assayed for plaque-forming cells (PFC) on day 5 after injection of sheep red blood cells. The assay employed was as follows: single-cell suspensions were prepared from individual spleens of mice. The cells were suspended in Hanks' Balanced Salt Solution (Gibco Laboratories, Grand Island, New York) and washed. Direct PFC were enumerated using the well-known method of Jerne, N.K. et al (in Cell-Bound Antibody, Amos, E. and Koprowsky, H. eds., Wistar Institute Press. pp. 109-111, […]) with the slide modification of Mishell, R.I. and Dutton, R.W. (J. Exp. Med. 126:423, 1967), both incorporated by reference.
In order to confirm and expand this finding, 1 ml o serum, diluted 1:2, was absorbed twice for thirty minutes at 4° C. using half the number of cells for each absorption as are listed for spleen (Sp1), lymphnode (LN) and thymus (Thy) in Table 3. Each CB6F1 mouse received 0.2 ml of a 1:4 dilution of absorbed or unabsorbed serum i.v. one to two hours before administration of 2×10^6 SRBC i.v. Plaque-forming cell response was measured as in Example 2.

[3] = 5 μg Con A, n = 4, PF4 0.2 to 0.6 μg per mouse

| Molecule | Geom. Mean of PFC/Spleen On Day 5, Expt. 2 [1, 3] | Geom. Mean of PFC/Spleen On Day 5, Expt. 3 ([1]; 5 μg Con A, n = 4, PF4 0.2 to 0.6 μg per mouse, PF4 + heparin mixture diluted 1:15, 0.2 ml per mouse) | Immunomodulatory activity against suppression induced by 5 μg Con A (result in words) [1] | Reversal of Con A-induced suppression (result in words) [1] | Enhancement of antibody (PFC) response without immunosuppressive agent (result in words) [2] |
| --- | --- | --- | --- | --- | --- |
| B1 | 22,910 PFC/Spleen | 34,420 PFC/Spleen | very marked activity | able to overcome Con A-induced suppression in a dose-dependent fashion | can also stimulate antibody formation even in mammals not treated with an immunosuppressive agent |
| B2 | 9,440 PFC/Spleen |  | a small amount | no significant immunomodulating activity |  |
